Test results as given in publication PMC6389498.

Biological target: PrfA WT (Listeria monocytogenes, UniProt P22262 1-237)
Test: BLI; free L-Leu, PrfA:ligand 1:100, no inhibition
Settings: protein: recombinant; tags: His-tag (pET28a); chain copies: 2; blunt

Sequence of PrfA WT (P22262 whole entry): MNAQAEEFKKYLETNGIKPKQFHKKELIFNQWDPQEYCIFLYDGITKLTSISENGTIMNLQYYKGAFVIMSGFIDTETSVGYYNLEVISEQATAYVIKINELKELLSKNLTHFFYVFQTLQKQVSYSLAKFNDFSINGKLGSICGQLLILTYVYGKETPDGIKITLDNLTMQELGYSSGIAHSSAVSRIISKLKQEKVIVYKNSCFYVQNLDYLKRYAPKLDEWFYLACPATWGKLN

B1: PplcA/Phly PrfA box (Phlybox) (dsDNA)
DNA 1: TGTCCCTTTATCGTCGTTAACAAATGTTAATGCCTCGACA
DNA 2: TGTCGAGGCATTAACATTTGTTAACGACGATAAAGGGACA
binding result: binds
